# Experimental data reported in article PMC5068790.
# Experiments:
# [1] = target: Drosophila Slo1 (BK channel α subunit) (Drosophila) (UniProt Q03720)
# [2] = target: mouse Slo1 (BK channel α subunit) (mouse) (UniProt Q08460)
# Sequence of UniProt Q08460 (Q08460 whole entry): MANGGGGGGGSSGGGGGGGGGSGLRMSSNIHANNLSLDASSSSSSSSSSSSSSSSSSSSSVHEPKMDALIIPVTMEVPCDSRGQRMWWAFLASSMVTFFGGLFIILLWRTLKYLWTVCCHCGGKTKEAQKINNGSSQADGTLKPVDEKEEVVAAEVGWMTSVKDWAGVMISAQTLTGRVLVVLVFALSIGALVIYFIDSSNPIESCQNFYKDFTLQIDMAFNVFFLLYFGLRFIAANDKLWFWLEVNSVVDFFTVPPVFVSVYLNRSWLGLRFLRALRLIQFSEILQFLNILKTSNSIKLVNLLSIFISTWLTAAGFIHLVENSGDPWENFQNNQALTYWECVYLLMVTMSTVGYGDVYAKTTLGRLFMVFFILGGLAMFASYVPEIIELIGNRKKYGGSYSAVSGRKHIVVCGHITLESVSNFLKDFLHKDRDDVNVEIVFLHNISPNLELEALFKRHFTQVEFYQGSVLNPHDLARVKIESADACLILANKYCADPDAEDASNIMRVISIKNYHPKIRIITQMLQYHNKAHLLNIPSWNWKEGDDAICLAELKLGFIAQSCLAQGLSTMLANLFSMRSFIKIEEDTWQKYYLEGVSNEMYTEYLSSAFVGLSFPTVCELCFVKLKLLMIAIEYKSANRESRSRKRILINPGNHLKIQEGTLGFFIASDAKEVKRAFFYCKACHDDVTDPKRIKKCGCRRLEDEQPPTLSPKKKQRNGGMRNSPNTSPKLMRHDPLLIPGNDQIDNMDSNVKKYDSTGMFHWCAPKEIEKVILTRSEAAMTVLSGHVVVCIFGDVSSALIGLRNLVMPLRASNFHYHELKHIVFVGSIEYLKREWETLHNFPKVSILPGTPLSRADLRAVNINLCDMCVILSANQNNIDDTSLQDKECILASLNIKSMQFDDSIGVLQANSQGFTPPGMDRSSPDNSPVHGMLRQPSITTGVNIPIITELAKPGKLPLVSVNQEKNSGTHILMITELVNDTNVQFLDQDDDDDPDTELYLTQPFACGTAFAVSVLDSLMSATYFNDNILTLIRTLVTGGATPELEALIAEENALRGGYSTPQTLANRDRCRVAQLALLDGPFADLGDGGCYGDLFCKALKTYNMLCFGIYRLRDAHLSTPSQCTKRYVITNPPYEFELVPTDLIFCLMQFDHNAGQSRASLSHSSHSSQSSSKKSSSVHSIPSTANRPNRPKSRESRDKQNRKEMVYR
# Sequence of UniProt Q03720 (Q03720 whole entry): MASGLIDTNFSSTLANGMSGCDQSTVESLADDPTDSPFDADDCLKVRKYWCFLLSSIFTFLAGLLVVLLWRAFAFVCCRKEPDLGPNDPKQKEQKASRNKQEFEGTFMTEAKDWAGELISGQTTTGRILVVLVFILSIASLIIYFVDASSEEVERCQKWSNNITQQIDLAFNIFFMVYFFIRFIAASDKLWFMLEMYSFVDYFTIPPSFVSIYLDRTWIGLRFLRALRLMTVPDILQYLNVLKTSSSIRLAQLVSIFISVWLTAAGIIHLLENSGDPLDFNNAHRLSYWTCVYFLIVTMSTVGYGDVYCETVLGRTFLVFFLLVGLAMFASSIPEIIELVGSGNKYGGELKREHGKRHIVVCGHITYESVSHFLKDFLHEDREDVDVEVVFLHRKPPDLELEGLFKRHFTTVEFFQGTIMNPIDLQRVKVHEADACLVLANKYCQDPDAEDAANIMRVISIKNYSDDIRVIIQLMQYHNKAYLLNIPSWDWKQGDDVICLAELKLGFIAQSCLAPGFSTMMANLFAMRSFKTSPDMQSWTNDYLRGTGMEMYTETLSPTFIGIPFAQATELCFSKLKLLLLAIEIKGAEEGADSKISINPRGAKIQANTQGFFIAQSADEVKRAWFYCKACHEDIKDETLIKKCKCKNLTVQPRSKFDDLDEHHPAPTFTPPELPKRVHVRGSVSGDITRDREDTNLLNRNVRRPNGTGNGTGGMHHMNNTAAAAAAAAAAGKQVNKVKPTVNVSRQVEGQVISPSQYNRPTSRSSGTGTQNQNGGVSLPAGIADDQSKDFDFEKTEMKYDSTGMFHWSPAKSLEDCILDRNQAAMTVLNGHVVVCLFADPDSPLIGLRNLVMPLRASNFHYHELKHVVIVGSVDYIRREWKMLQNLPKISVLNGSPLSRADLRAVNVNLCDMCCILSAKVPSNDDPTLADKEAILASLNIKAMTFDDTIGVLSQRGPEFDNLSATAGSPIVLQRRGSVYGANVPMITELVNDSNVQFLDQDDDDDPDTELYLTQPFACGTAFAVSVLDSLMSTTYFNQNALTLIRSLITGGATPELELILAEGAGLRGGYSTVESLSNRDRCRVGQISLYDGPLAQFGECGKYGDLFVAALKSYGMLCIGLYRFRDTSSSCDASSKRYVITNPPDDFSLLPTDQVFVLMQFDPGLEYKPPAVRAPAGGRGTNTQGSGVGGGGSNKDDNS
"patch clamp, inside-out patches of HEK293 cells: share of random tests with inactivation or brief openings (β2 binding ratio) at α:β2 transfection ratios 1:0.2 (about 7%), 1:1, 1:4 and 1:8 [1] [%]","patch clamp, inside-out patches of HEK293 cells, α:β2 transfection ratio 1:0.2: share of random tests whose currents showed rapid and complete inactivation (called binding rate) [2] [%]","patch clamp, inside-out patches of HEK293 cells, transfection ratio 1:0.2: share of random tests with slow activation (called β2 binding rate) [1] [%]","patch clamp, inside-out patches of HEK293 cells, α:β2 transfection ratio 1:0.2, 10 μM Ca2+: share of random tests with a left shift of V50 to −30 mV from about +25 mV (called binding rate) [2] [%]",Binder
85,100,,,BK channel auxiliary β2 subunit (natural protein) MFIWTSGRTSSSYRHDEKRNIYQKIRDHDLLDKRKTVTALKAGEDRAILLGLAMMVCSIMMYFLLGITLLRSYMQSVWTEESQCTLLNASITETFNCSFSCGPDCWKLSQYPCLQVYVNLTSSGEKLLLYHTEETIKINQKCSYIPKCGKNFEESMSLVNVVMENFRKYQHFSCYSDPEGNQKSVILTKLYSSNVLFHSLFWPTCMMAGGVAIVAMVKLTQYLSLLCERIQRINR
,,100,100,Δ3-β2 (β2 subunit with the inactivation ball FIW deleted) (natural protein) MTSGRTSSSYRHDEKRNIYQKIRDHDLLDKRKTVTALKAGEDRAILLGLAMMVCSIMMYFLLGITLLRSYMQSVWTEESQCTLLNASITETFNCSFSCGPDCWKLSQYPCLQVYVNLTSSGEKLLLYHTEETIKINQKCSYIPKCGKNFEESMSLVNVVMENFRKYQHFSCYSDPEGNQKSVILTKLYSSNVLFHSLFWPTCMMAGGVAIVAMVKLTQYLSLLCERIQRINR
